# According to patent publication US20170037092A1:
# Target: HLA-A*02:01 (human)
# Experiment: UV-ligand exchange ELISA
binder,measurement,value
SLTETIEGV (modifications not checked) […],peptide exchange yield,20 to 50%
